According to paper PMC3883574:

Target: double-domain activation-associated secreted protein (ASP) (Cooperia oncophora (endogenous in adult worms))
Test: reducing against non-reducing SDS-PAGE, bands identified by MALDI-TOF MS

double-domain activation-associated secreted protein (ASP) (natural protein)
stoichiometry N: 2
